These results are taken from the supplement of paper PMC9170038.

For this data set, the system named is MS2 coat protein. Put plainly: apparent KD of MS2 coat protein; designed switch direction (-1 OFF switch, 1 ON switch): 1; higher = weaker reporter binding. In outline: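 SNAP-549-labelled MS2 coat protein was titrated, doubling from 0.7 or 1.5 nM to 3 µM, over designed RNA switches transcribed on Illumina chips by stalled E. coli RNA polymerase. Runs were done without input, with 200 uM small-molecule ligand, or with an oligonucleotide input. Apparent KD is the per-design median over clusters of curve-fitted normalised fluorescence.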

Setting [1] is: input ligand: microRNA oligo, concentration not stated.
[2] abbreviates: Eterna round: R95, input ligand: FMN 200 uM.
Where [3] appears, read: Eterna round: R95, input ligand: microRNA oligo, concentration not stated.
Where [4] appears, read: Eterna round: R95, input ligand: none.

Take “AUGAAGAAUUAAGGAUAUUGAUUACAUAUGUUUAACAUGAGGAUCACCCAUGUGGGUUGCGGUAUCGAGAAGGUAAAUUAAUAG [Mat - same State NG 2 - JL mod - D84] (Eterna round: R96, puzzle: Same State NG 2)”: the “apparent KD of MS2 coat protein” value reads like this: (input ligand: FMN 200 uM) 187 nM; under setting [1], 129 nM; (input ligand: none) 196 nM.

For “GCUCGUAUCACAACCAACAUGAGGAUCACCCAUGUAUGUUGGUAGGAUAUCUAUAUUAAGGAUAUAGAGAAGGGCCGAACGAGC [SameState NG3 #12] (Eterna round: R96, puzzle: Same State NG 3)”, the “apparent KD of MS2 coat protein” value (input ligand: FMN 200 uM) worked out at 53.7 nM, the “apparent KD of MS2 coat protein” value under setting [1] was found to be 59.7 nM and the “apparent KD of MS2 coat protein” value (input ligand: none) turned out to be 82.3 nM.

With “CGGGUGAUCGUAGGAUAUCUAGGAUAUGAACGAGGAUCACCCGAGCAGCAUCAGCGCAUCAGAGGAGAGAAGGACGAUGAUGCG [pwkr ssNG2 2F5 2FMN.19] (Eterna round: R96, puzzle: Same State NG 2)”, the “apparent KD of MS2 coat protein” value (input ligand: FMN 200 uM) amounted to 20.5 nM, the “apparent KD of MS2 coat protein” value under setting [1] worked out at 21.7 nM and the “apparent KD of MS2 coat protein” value (input ligand: none) worked out at 34 nM.

In the case of “CCGUAGAUGGUAGGAUAUGGAGCCUUAUUGGCUCCAGAAGGAUCGAAAACAUGAGGAUCACCCAUGUCGGCGGUCAAUAGACCG [Eli NG1ss - 84] (Eterna round: R96, puzzle: Same State NG 1)”, the “apparent KD of MS2 coat protein” value (input ligand: FMN 200 uM) was found to be 21.8 nM, the “apparent KD of MS2 coat protein” value under setting [1] was found to be 43.1 nM and the “apparent KD of MS2 coat protein” value (input ligand: none) was 34.1 nM.

In the case of “GGUCCAGCCUGAGCUGGACAAAAGCAUGUACAUGAGGAUCACCCAUGUCAUGUACAAGCUUUUUGCUCGUCUUGAAA [JL mod - D87 - 8] (puzzle: Sensor for hsa-mir-208a)”, the “apparent KD of MS2 coat protein” value by setting is: under setting [2], 359 nM; under setting [3], 16.5 nM; under setting [4], 867 nM.

For “CUGAGGUGUCAAGGAUAUGCUACCGUUUCGGUAGCAGAAGGUGAUCACAUGAGGAUCACCCAUGUAUGCAUGCGUGAGCGUGCU [JL SSNG1 3.60] (Eterna round: R96, puzzle: Same State NG 1)”, the “apparent KD of MS2 coat protein” value under setting [1] came out at 17.8 nM.

On to “UUAAUGAAGUAAGGAUAUACAUGAGGAUCACUCGUAGAAGGUACUAUACAUGAGGAUCACCCAUGUUCCGGUCCGUAGACUGGA [JL SSNG1 1.02] (Eterna round: R96, puzzle: Same State NG 1)”, for which the “apparent KD of MS2 coat protein” value is, setting by setting: (input ligand: FMN 200 uM) 1600 nM; under setting [1], 236 nM; (input ligand: none) 841 nM.

Turning to “GGCGAACAGGCUAACAUGAGGAUCACCCAUGUGGACUCAUGUUAGGAUAUCGGGAAGGAGGAAACCGAGAAGGGACGGUGAGCC [AK SSNG3-V2-47] (Eterna round: R96, puzzle: Same State NG 3)”, the “apparent KD of MS2 coat protein” value is, setting by setting: (input ligand: FMN 200 uM) 18.8 nM; under setting [1], 9.25 nM; (input ligand: none) 82.3 nM.

Consider “ACAGAGUGAAGACAGGAUAUUCGCGAUGGCACAUGAGGAUCACCCAUGUUUUGAGCACAUAAACAGAAGAAGGGUUAAAACUCAG [Zadier] (Eterna round: R96, puzzle: Same State 2)”, for which the “apparent KD of MS2 coat protein” value amounted to 13.6 nM (input ligand: FMN 200 uM), 74.1 nM under setting [1] and 104 nM (input ligand: none).

Turning to “AAUUUAAUACAUGAGGAUCACCCAUGUAAUACUAGUAAGAUCUAGGAUAUCAGCUCGAUUAGAGCUGAGAAGGAGAUCACAUGU [SSNG3/19-C2] (Eterna round: R96, puzzle: Same State NG 3)”, the “apparent KD of MS2 coat protein” value under setting [1] amounted to 82.9 nM.

On to “CUGAGCGAUCAAGGAUAUCACGUCGAUUAGACGUGAGAAGGUGAUCAUAACAUGAGGAUCACCCAUGUAUUACAUGAAGCUCAG [SSNG1/2-A2] (Eterna round: R96, puzzle: Same State NG 1)”, for which the “apparent KD of MS2 coat protein” value by setting is: (input ligand: FMN 200 uM) 386 nM; under setting [1], 146 nM; (input ligand: none) 1620 nM.

For “AGCUAUCGAAAACGAUAGCAAAAGCAUGUACAUGAGGAUCACCCAUGUCAUGUACAAGCUUUUUGUUCGUCUUAAAA [Zipper 23 - 14] (puzzle: Sensor for hsa-mir-208a)”, the “apparent KD of MS2 coat protein” value by setting is: under setting [2], 430 nM; under setting [3], 11.7 nM; under setting [4], 334 nM.

With “AAGGUGCAGGUACAGGAUAUGUUGCUCGUAACAUGAGGAUCACCCAUGUACCUAUGAGAUUAAAUGCAGAAGGGUGCACACCAAA [Mat - Same State 2 - Mod of UCT - D91] (puzzle: Same State 2)”, the “apparent KD of MS2 coat protein” value is, setting by setting: under setting [2], 73 nM; under setting [3], 484 nM; under setting [4], 302 nM.

With “UGUUUGUUGUGAGGAUAUACAUACACCUUACAUGAGGAUCACCCAUGUUUUAAUUUUGAUAGUUAGUAGAAGGCACAUGAUUAU [JR_SSNG2_Sub044] (Eterna round: R96, puzzle: Same State NG 2)”, the “apparent KD of MS2 coat protein” value is, setting by setting: (input ligand: FMN 200 uM) 21.3 nM; under setting [1], 28.1 nM; (input ligand: none) 46.5 nM.

With “AUAAACAGGCUAGGAUAUCCGGAAACUACAGGGCACGACCCUGUGGACAUGAGGAUCACCCAUGUGGAGAAGGAGCCACAUGAA [Edlatibi] (Eterna round: R96, puzzle: Same State NG 2)”, the “apparent KD of MS2 coat protein” value came out at 15.1 nM (input ligand: FMN 200 uM), 108 nM under setting [1] and 152 nM (input ligand: none).

“GGAAUAUUCACAGGAUAUGAGUUGUAAAGUGGAUCAGAAGGGUGGGUGUUUUGCACGGUGUGUUACAUGAGGAUCACCCAUGUU [SameState NG1 #23] (Eterna round: R96, puzzle: Same State NG 1)”: the “apparent KD of MS2 coat protein” value turned out to be 82.4 nM (input ligand: FMN 200 uM), 241 nM under setting [1] and 418 nM (input ligand: none).

Regarding “AGUCCAGCCUGAGCUGGACAAAAGCAUGUACAUGAGGAUCACCCAUGUUCAUGUACAAGCUUUUUGCUCGUCUUGCU [salish99_208a_r3_105x] (puzzle: Sensor for hsa-mir-208a)”, the “apparent KD of MS2 coat protein” value by setting is: under setting [2], 578 nM; under setting [3], 15.7 nM; under setting [4], 680 nM.

On to “GGUCCAGCCUGAGCUGGACAAAAGCAUGUACAUGAGGAUCACCCAUGUCAUGUACAAGCUUUUUGCUCGUCUUAAAU [Mat - hsa-mir-208a - 84] (puzzle: Sensor for hsa-mir-208a)”, for which the “apparent KD of MS2 coat protein” value by setting is: under setting [2], 495 nM; under setting [3], 16.1 nM; under setting [4], 800 nM.

On to “CCGAUGCUUAUAAACAUGAGGAUCACCCAUGUGAGGACACAUGAGGAUAUGCAGGUCAAAGACUUGCAGAAGGCAUAGCGUCGG [JL SSNG3 3.89] (Eterna round: R96, puzzle: Same State NG 3)”, for which the “apparent KD of MS2 coat protein” value was 40.7 nM (input ligand: FMN 200 uM), 158 nM under setting [1] and 305 nM (input ligand: none).

Consider “AGAUCAUGACGAGGAUAUGGAACAUGAGGAUCACCCAUGUAUGUUCCAUAACGCGAAUGACGAAUCCAGAAGGCGUCGUGAUCA [Mat - Same State NG 2 - JL mod - D26] (Eterna round: R96, puzzle: Same State NG 2)”, for which the “apparent KD of MS2 coat protein” value was 18.1 nM (input ligand: FMN 200 uM), 92.1 nM under setting [1] and 116 nM (input ligand: none).

On to “GGAUCGGAGGCAGGAUAUGGGCUCAGAACAUGAGGAUCACCCAUGUAAAACGGCGCAAUGCGCCACCAGAAGGGCCUCCAGUCG [Esussoed] (Eterna round: R96, puzzle: Same State NG 2)”, for which the “apparent KD of MS2 coat protein” value reads like this: (input ligand: FMN 200 uM) 13.2 nM; under setting [1], 25.7 nM; (input ligand: none) 44.1 nM.

Regarding “UGGUACAUGGGAGGAUAUCCUCAGGAGACAUGAGGAUCACCCAUGUAAUUAAAGCCGAAAGGCAUGGAGAAGGCCCAUGUACCU [JL SSNG1 3.79] (Eterna round: R96, puzzle: Same State NG 2)”, the “apparent KD of MS2 coat protein” value reads like this: (input ligand: FMN 200 uM) 20.1 nM; under setting [1], 172 nM; (input ligand: none) 131 nM.

For “AUCAUUAAUGCAGGAUAUGAUUAACAUGAGGAUCACCCAUGUGGUGUUGUGAGUAAGGAGAGUGAUCAGAAGGGCAUUUUUUUU [JMF's solution 35] (Eterna round: R96, puzzle: Same State NG 2)”, the “apparent KD of MS2 coat protein” value (input ligand: FMN 200 uM) came to 699 nM, the “apparent KD of MS2 coat protein” value under setting [1] stood at 292 nM and the “apparent KD of MS2 coat protein” value (input ligand: none) stood at 469 nM.

As for “AUUAUUUCAUGAGGAUAUGGCACCUUAUUGGUGCCAGAAGGCAUGUCUAUUGACAUGAGGAUCACCCAUGUAUUAAAUUAUAUA [Eli NG1ss - 89] (Eterna round: R96, puzzle: Same State NG 1)”, under setting [1], the “apparent KD of MS2 coat protein” value turned out to be 387 nM.

Take “GAUUCACAUGAGGAUCACCCAUGUCGUUAUAUGGGAGGAUAUACGUGGACCGUAGUCCGCGUAGAAGGCCUAAUUG [JL-ss1-3.25 janelle mod] (puzzle: Same State 1)”: under setting [3], the “apparent KD of MS2 coat protein” value worked out at 303 nM.

In the case of “UUAAUGAUGAUAGGAUAUACAUGAGGAAUUCUCGUAGAAGGAUCAUGACAUGAGGAUCACCCAUGUAUCGCUCGAUAGAGCGUA [Mat - Same State NG 1 - JL mod - D34] (Eterna round: R96, puzzle: Same State NG 1)”, the “apparent KD of MS2 coat protein” value is, setting by setting: (input ligand: FMN 200 uM) 844 nM; under setting [1], 142 nM; (input ligand: none) 158 nM.

For the sequence “AGUCCAGCCUGAGCUGGACAAGAGCAUGUACAUGAGGAUCACCCAUGUCAUGUACAAGCUUUUUGCUCGUCUUAAUA [Zipper 49 - 2] (puzzle: Sensor for hsa-mir-208a)”, the “apparent KD of MS2 coat protein” value turned out to be 470 nM under setting [2], 14.9 nM under setting [3] and 530 nM under setting [4].

Consider “UUGAUUAGAAAUUAACAUGAGGAUCACCCAUGUAUUGGAUCAGAGGAUAUGCAUGUUUGAUUGUAGCAGAAGGCUGAUUGUGGA [JR_SSNG3_Sub028] (Eterna round: R96, puzzle: Same State NG 3)”, for which the “apparent KD of MS2 coat protein” value turned out to be 43.2 nM (input ligand: FMN 200 uM), 29.5 nM under setting [1] and 46.5 nM (input ligand: none).
